The values below come from the DeepSol protein solubility set.

A short description of the series: soluble on expression in E. coli; label from the status in PepcDB or PDB records.
In the case of “MSLNGFCARLRAITFNERLKMKIAVLLSGGVDSSYSAYSLKEQGHELVGIYLKLHASEKKHDLYIKNAQKACEFLGIPLEVLDFQKDFKSAVYDEFINAYEEGQTPNPCALCNPLMKFGLALDHALKLGCEKIATGHYARVKEIDKVSYIQEALDKTKDQSYFLYALEHEVIAKLVFPLGDLLKKDIKPLALNAMPFLGTLETYKESQEICFVEKSYIDTLKKHVEVEKEGVVKNLQGEVIGTHKGYMQYTIGKRKGFSVKGALEPHFVVGIDAKKNELIVGKKEDLATHSLKAKNKSLTKDFKDGEYFIKARYRSVPTKAFVSLKDGMIEVEFKEPFYGVAKGQALVVYKDDILLGGGVIVEGHHHHHH”, the “soluble on expression in E. coli” value is on record as “soluble”. For “MAHHHHHHMRNGPKVLIALGNELKRGAASHQCKGDVARMYVNYLRQRYSMDEWNHVSNVNSFICEKNNIILIKPVTSLEKNSGLAIKNILNYLNCEDLKNVCIILPDLYRSIGKFKYKSYTKIYEKLGPDFYNILNSNIINNVLCNHFLQLCIGVSNYPNETKNAVAIALQECLSDGELKKIFKTFQLAEEYFHKKIMNGKVITTNYIHFKEKYPAMEPQKSFRRSTASRRYILDVYRHMYK”, the “soluble on expression in E. coli” value is “not soluble”. For “MAHHHHHHMESNNHTTDLPSHAPGVEAAPIAAATPPLTGLAEGAVVTEGASHPKMAAAEPSEATATESPPSPHSTGEAKTQNALAALMSVLDNDEAARRGGTSLRSLQKMCMRVPQLSTELTRPQRFQLYCLLLLEDGDDPAVPGGAAGQEDWTTYTKQALETHVHMAKQAAALFPPPSTSPPTNSPASSTAWAPMRPFTSIRQ” the value was “soluble”; for “MSLRTSASLAGSLAYGMADFLGRSEHLSIIDMIVPRMRQDNVETVVGMFDGQPSSTGGSRVAKFLHENFLHTFSAELKRLRRDEQETPLDAFRRTFLTLNRNMAFACYKSIDQDVRLFQEDSSDQKKVRLNKEDLQSGGVATVLYLNNTDLYAANIGDAQAILVKSDGSMRYLTRNHDPAEAGERARIRAAGGFVSRNGRLNDYLPVSRSFGYFNLMPAVIAAPHTMHVSLTEQDEMIILASKELWDYVTPDLVVDVTRAERRDLMVAAQKIRDLALSFGANNKLMVMILGVGDLREGHHHHHH”, “soluble”; for “MGSDKIHHHHHHMLKLDKIQANKIVEKLMADIPYNINIMDERGKIIASGDSARIGERHRGAERAINERKNIEIYKDTSLEKKGTNEPIILNNHILGVVGISGEPDEVRKFTKLVRSIVLLLTEELNTQQEREKKKKQKNQFIQHLMHVDSSYSEALKLEALELYNLQLDDQNHCVLTKDKRLLSSYYPGHEIFEWENCYLVITSEPPQITKPVTEYLVISSEKATIQQMVQEAQNTYLLLSFLQLEKAKFYQAEDFFIQGIFNFPFHIELDFFETIQTIYDEYYETVIFFANHNLNINETSQVLHIHRNTLNYRLKRIHELTGMDPKVWQDFWKLFYYFAYCFKERFEK”, “not soluble”.

Consider “MSLSTARLPENAERNRFQDVLPYDDARVELVPTKENNTGYINASHIKVSVSGIEWDYIATQGPLQNTCQDFWQMVWEQGIAIIAMVTAEEEGGREKSFRYWPRLGSRHNTVTYGRFKITTRFRTDSGCYATTGLKMKHLLTGQERTVWHLQYTDWPEHGCPEDLKGFLSYLEEIQSVRRHTNSTSDPQSPNPPLLVHCSAGVGRTGVVILSEIMIACLEHNEVLDIPRVLDMLRQQRMMLVQTLCQYTFVYRVLIQFLKSSRLIEGHHHHHH”, for which the “soluble on expression in E. coli” value was “not soluble”. Turning to “MAAGFGRCCRVLRSISRFHWRSQHTKANRQREPGLGFSFEFTEQQKEFQATARKFAREEIIPVAAEYDKTGEYPVPLIRRAWELGLMNTHIPENCGGLGLGTFDACLISEELAYGCTGVQTAIEGNSLGQMPIIIAGNDQQKKKYLGRMTEEPLMCAYCVTEPGAGSDVAGIKTKAEKKGDEYIINGQKMWITNGGKANWYFLLARSDPDPKAPANKAFTGFIVEADTPGIQIGRKELNMGQRCSDTRGIVFEDVKVPKENVLIGDGAGFKVAMGAFDKTRPVVAAGAVGLAQRALDEATKYALERKTFGKLLVEHQAISFMLAEMAMKVELARMSYQRAAWEVDSGRRNTYYASIAKAFAGDIANQLATDAVQILGGNGFNTEYPVEKLMRDAKIYQIYEGTSQIQRLIVAREHIDKYKN”, the “soluble on expression in E. coli” value was “soluble”.
